Experimental data reported in article PMC4471001.

Tests used:
[1] = target: human importin α5 (human) (UniProt P52294); experiment: fluorescence polarisation; S2 Fig D; method not named for this panel, taken as the paper's fluorescence polarization assay; dark and blue light, binding light independent
[2] = target: human importin α7 (human) (UniProt O60684); experiment: fluorescence polarisation; competition, dark (value read after 5 minutes in absence of light); 25 nM TAMRA peptide …, 50 mM Tris pH 7.5, 100 mM NaCl, 1 mM DTT, 25°C; Kd from IC50
[3] = target: human importin α5 (human) (UniProt P52294); experiment: as above
[4] = target: human importin α7 (human) (UniProt O60684); experiment: fluorescence polarisation; competition, under blue light (455 nm, 6 mW/cm^2; value read after 2 minutes of illumination); 25 nM TAMRA peptide …, 50 mM Tris pH 7.5, 100 mM NaCl, 1 mM DTT, 25°C; Kd from IC50
[5] = target: human importin α5 (human) (UniProt P52294); experiment: as above

Chain of human importin α5 (human) (P52294 whole entry): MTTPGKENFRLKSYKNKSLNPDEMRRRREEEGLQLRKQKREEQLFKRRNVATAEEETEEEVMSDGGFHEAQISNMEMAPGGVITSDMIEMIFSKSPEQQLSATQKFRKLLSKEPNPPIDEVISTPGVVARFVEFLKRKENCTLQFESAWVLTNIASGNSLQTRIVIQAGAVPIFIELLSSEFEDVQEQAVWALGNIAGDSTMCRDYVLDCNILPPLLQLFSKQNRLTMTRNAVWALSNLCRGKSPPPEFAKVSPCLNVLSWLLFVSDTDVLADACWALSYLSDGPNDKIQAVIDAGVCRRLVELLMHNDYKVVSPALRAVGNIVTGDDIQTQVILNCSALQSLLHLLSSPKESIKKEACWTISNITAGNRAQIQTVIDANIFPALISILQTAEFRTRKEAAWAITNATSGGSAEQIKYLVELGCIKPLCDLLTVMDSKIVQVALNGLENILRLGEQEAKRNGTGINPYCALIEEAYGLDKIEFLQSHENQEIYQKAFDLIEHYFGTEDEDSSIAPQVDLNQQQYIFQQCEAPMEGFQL

Row | Substance | Kd [1] | Kd [2] | Kd [3] | Kd [4] | Kd [5]
1 | AsLOV2cMyc (from UniProt O49003 404-546) | 1 nM | – | – | – | –
2 | AsLOV2cNLS (from UniProt O49003 404-546) (designed binder) | – | 2000 nM | 1500 nM | 340 nM | 250 nM
